For this test, the target named is human insulin receptor isoform B (human) (UniProt P06213). Briefly: competitive displacement of 125I-Tyr^A14-insulin, plate antibody capture of receptor.
Chain of UniProt P06213 (P06213 other isoform, or with tags, fused parts or gaps): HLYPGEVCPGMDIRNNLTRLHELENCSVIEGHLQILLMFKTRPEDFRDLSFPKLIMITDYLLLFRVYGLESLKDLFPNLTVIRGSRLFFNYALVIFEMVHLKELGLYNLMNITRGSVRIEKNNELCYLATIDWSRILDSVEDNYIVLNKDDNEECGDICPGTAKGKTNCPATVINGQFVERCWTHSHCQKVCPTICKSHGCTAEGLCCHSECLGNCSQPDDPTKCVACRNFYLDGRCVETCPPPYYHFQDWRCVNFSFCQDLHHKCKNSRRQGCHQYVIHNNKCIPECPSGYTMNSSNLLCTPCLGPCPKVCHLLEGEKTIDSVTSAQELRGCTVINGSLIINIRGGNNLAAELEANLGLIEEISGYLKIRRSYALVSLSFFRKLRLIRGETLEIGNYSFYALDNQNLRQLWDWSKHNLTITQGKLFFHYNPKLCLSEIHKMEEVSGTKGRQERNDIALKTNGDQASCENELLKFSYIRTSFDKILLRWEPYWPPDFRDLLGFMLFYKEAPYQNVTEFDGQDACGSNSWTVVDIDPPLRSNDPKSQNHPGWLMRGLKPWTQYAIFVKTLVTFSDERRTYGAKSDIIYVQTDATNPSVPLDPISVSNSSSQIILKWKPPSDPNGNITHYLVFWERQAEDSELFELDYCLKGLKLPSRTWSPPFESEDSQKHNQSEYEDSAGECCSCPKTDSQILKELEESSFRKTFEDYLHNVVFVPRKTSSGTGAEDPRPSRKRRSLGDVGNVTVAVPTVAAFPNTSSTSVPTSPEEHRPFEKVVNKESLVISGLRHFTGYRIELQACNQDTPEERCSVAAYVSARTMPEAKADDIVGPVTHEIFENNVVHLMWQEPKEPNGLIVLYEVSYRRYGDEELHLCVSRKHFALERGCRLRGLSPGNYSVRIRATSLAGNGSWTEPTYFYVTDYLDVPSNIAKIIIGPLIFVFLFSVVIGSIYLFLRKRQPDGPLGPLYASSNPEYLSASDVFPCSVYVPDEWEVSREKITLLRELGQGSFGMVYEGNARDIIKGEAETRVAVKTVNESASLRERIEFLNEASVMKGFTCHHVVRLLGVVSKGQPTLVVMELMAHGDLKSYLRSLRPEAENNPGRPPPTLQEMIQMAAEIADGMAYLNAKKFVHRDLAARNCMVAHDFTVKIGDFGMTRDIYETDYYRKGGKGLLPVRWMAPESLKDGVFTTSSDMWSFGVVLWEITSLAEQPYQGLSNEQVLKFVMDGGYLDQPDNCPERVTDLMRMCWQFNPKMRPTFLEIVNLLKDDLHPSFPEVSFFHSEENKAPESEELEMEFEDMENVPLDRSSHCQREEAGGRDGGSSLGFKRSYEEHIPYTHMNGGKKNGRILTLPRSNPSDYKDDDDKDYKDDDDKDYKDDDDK

On to “XKPEE: analogue with 2-methyl-Phe^B24 (called X), Lys^B28, Pro^B29, and EE-extension (Glu^B31, Glu^B32) (ligand)”, for which the Kd – broadly, the free concentration of one partner at which half of the binding sites on the other are occupied at equilibrium, for simple one-to-one binding – was 0.04 nM.

Source of the values: patent US20110077196A1.
